Test results as given in the DeepSol protein solubility set.

Assay: soluble on expression in E. coli; label from the status in PepcDB or PDB records

| Sequence | soluble on expression in E. coli |
| --- | --- |
| MGSDKIHHHHHHMKVAIVHYWFVGMRGGEKVIEALCELYPQADIFTHVFVPEAVSDRIRRHRVTTSFINSLPRASSMYKSYLPLMPLALEHLDLSGYDLVISSESGPAKGIIPPPDALHVCYCHTPMRYIWNMYHDYRNGAGRLTKLLMPPLAHYLRMWDVSTASRVDSFIANSATVADRVRRYYRRDSVVIHPPVDTAVFTPVPASELGDYYLMAGELVAYKRPDLAVQAFNQIGRKLVVIGGGEMLNELKRIAGPNVTVMGSQPFEVLRHHYMHCRALIFPGEEDFGMVPVEAMAAGRPVIAFGKGGATETVVPGLSGLFFQAQEVEQIRSAILQLDDIEIDPAKISSHAARFGKQAFFDGFRSHIDQLLAAKAQATARNRG | not soluble |
| AHHHHHHGSQHPRKIYFVDTSFLTFLSVKFSKNMERLMENTVFIELLRRGKGVNYALGKNWGIDFVLLIKVSYDVSDEGTLRCEVNALRKVSREFDFKNALLITWNSKRRIEREEL | soluble |
| MKLLDHKLSLLEITDEEKSDEIILNLSRNVKKDLEDIVVANVSMENVLVMNIKVPPTLNKQNAVEYATMEISRNLGILPEQLVVAPLDIRGGEGLFFVSKVDQVKSFVTDLMKKEFPETDVVIPDIVKYLEVFEFYFGKRLKGTS | soluble |
| MNADKFVETTISDFMRLNSSRDFEYFVSIAKQLYSRGCRDYYTEAFLTHLKTIFPITEENAEKWLKYGEMLGTVGEKDFRTDIFEQMMKDFVDSNKLSQIAAKFHGFVESVDDWNLLAECLFSRVRALEHKINLTASAPMATDPSESSC | not soluble |
| MKIDKYSAILGNTVGFHNMSTLTDHRPVASLPFGGKYRLIDFPLSSLANAGVRSVFGIFQQDNISSVFDHIRSGREWGLSTLLSHYYLGIYNTRVESSTVGKEYYQQLLTYLKRSGSNQTVALNCDVLINIDLNQVFHLHSTTKEPITVVYKKLAKKDISEVNAILDVDETDHVLSHKLFDSKSTAETFNMSTDIFVVDTPWLIEHLEEEAKKEHPEKLRYVLRDLAVKEGAFAYEYTGYLANIHSVKSYYQANIDMLESQKFYSLFSPNQKIYTKVKNEEPTYYANTSKVSTSQFASGSIIEGQVANSVLSRNIHVHKDSLVKDSLLFPRVVIGEGAQVEYAILDKGVEVEHGVVIRGTAEHPVVVKKGAKVTEDIHS | not soluble |
| SLGGLKLGDLCRLKGQETNTLQGLGLVVGLQGTGDGDAAPKGRALARMMQLMGGPMAVDAAGRLNIEDVGDAKNVAMVFVSATIPTVGAQQGDVLDVTINAISAKSLDGGYLMLTPMLGPRADNPTVYGMAEGRISVSADSPPTSATIQGGLKMETSVRASYVHDNRITLVIDRDFADFSTAHMIEEEVNSLTSFTIGDRNVSRLASPNHQGTGQDGNIALARAIDQLHVEVVIPPTYRDNPIKFIAFLLDIVIPLSNRGKRVVINEADGVVVIGEDVEIAPVLVTHRNLRIEAGGGGRFVEVGPDGTPAAAKLKSLADALGALDVPTEDLIAIIKTLKAKGDLYGEVIFR | not soluble |
| MKHLLLASLLGSAMAMSSLVMAADTDLKTLEAAAKAEGAVNSLGMPDDWANWGGIWKDLETKYGLKHMDTDMSSAQEIAKFDAEKDNASGDIGDVGAAFGPIAVAKGVTQPYKPTTWEQIPDWAKDKDGHWALAYTGTIAFIVNKNLLHGSEIPKSWADLKTGKYKVSIGDVSTAAQATNGVLAAAIAMKGDESNIEPGLALFTDLAKQKRLSLANPTIQTIEKGEIEVGVVWDFNGLNYKAKMAKPDDYVVLIPSDGSVVSGYTTIINKYAKHPNAAKLAREYTFSDAGQINLAKGNARPIRVEHIKLPDDVKAQLLPHEQYLNAKPIKDADAWEKTSKALPQKWNEQVIIEMN | not soluble |
| MSGPTDTSTQPQGFSMTRLRLIGSAVLLSLSSMAMADSASQAEQFLKLVHADKLTVPVYAQVQQMLAQRFAQAKAPESKKAVLERYQAKANAELDRAIGWDKIKPELIKLYTTNFTESELKDLNAFYQSPLGKKVLEKMPRLTAESAQLTQAKLQGAVEPVNKLMADMDKELGVAAPAQKKK | not soluble |
| CFSCLNQKSNLYCLKPTICSDQDNYCVTVSASAGIGNLVTFGHSLSKTCSPACPIPEGVNVGVASMGISCCQSFLCNFS | soluble |
| MDDATKSSLKAIPLCKTKASPRDGDLWIERLKEEYEAIIAAVQNNKDCDRDWFQLESNERGTKWFGKCWYFHNMVKYEFDVEFDIPITYPVTAPEIALPELDGKTAKMYRGGKICLSEHFKPLWARNTPKFGIAHAFALGLGPWMAVEIPDLIEKGLIQPKA | not soluble |
| MNLTIIEFESNVLRDNPLNDPYKRRVGIIYPKDYEGRPILIYLSGYLSSSLTQINYNPLGEDMVSKVERLSNEGKMKGSVIVLPDMFTKVGGNQYINSSAVGMYEDFLVKELIPFLKDKFKSDKIGIFGHSSGGYGALILGMKYPNTIKAIADHAGDAYFEYVYLPTFPRAIEQLRRFKTPEEWLENYWKKENKQHREDLNTLNVVGMSAFYSPNNEKIELPFDLETGEILEDVWKKWLEKDPVRMVDKYADNLKMLKFIFIDVGKKDEFNIQYGSRTLHKKLQKYGINHYYEEFNDGHLHTNYRYDISLSLLEKKLTSE | not soluble |
| SASMDVEEFIGQNRQLADRVEAFRGFSESDKHWKGRREFIFRNMADFPEPQVDHLLALSMVWQNHVFMGCRYSSELLQRVMEMAEGIEVEDAPVFKTRDEIIRQQKQR | soluble |
| MAAQSDRYDAVLVQYGLRPVRMEQRGKAVKVYTNRGVFALKPLESEQEAAAVWQSLQHGGPRCLPLYLTRRRSLFATEGGRLYYLQAWHDGESKVEKDAADAFFRELARLHRATVRTIEVSEEEAAAYRKQKKDEWQRARTVWEERIERYEAAWYMSPFQLQCCTYFHEVMRAYSFAEERLDVWEETLKETKQWRIAWVHGKARLSHYIPPYWISWERAHWNSPLFDVIAALRFHVQTMPPLGREWLEGMEEYEKELPLSDGERAFLYSHLAEPRGFVRCLERYEAASRNERNEREYVAALQRRYLAFKNMEALVMHLVQRDAARQQEEAVDNEPPSDESSNG | not soluble |
| MGSDKIHHHHHHMANNNGKDKSLESWIWDAACSIRGAKDAPKYKDYILPLIFTKRLCDVFDDELNRIAAEVGSRKKAFQLAKADHKLVRFYLPLVPDDPEQPVWSVIRKLSDWIGEGVTSHMRAIARENPLLQGIIDRVDFNATTHGQRDLDDDRLSNLIEAISTKRLGLEDVEADIIGKSYEYLIRKFAEGGGQSAGEFYTPPEVGTIMSRVLQPEPGMEIYDPTCGSGGLLVKCEIAMEETAKGKKRTVAPLKLFGQEFTPETWAMANMNMIIHDMEGQIEIGDTFKNPKFRSKGKLRTFDRVVANPMWNQDWFTEADYDNDELDRFPAGAGFPGKSSADWGWVQHIHASMNATGRAAVVLDTGAASRGSGNAGTNKEKTVRQWFVDHDLIESVLYLPENLFYNTTAPGIVLFLNKAKAHERKGKVFLVNASQVFEKGDPKNFIPEAGIQRIADTLIGWVEAEKLSRIVDHAELKKNDYNISPSRYIHTSDAETYRPIAEIVEELEAIEAEAKETDQALDRILKQLGIGA | not soluble |
| MGSDKIHHHHHHMDQDDASPISSGVEGLDYVLRGGYAKYRSHLVEGRPGSGKTTLGLQFLIKGAAAGEKCLYITLSESRRELQSVAVRHGFSLDGIEILELVPPELSLDPSQLQTLVHSSDLELGETVQAALAEIERMKPDRVVFDSLSEIRLLSQGSLRYRRQVLALKSFFLLNNATVLLLDDLTAEHDDLNLHSISHGVIRMEQLSPIYGGERRRLRIIKMRGVQIRGGFHDFVIRPGGVMVFPRLVASEHEMAEHGTPATGNGSVDTLVGGGLDRGTSTLLMGPSGVGKSTIACSYCHSALKRGEHVLVLLFDETKRIFLARASGLGMDLGPFADNGNLLLEQIDPAELSPGELSSRIQSAVERSSARIVVIDSLTGYLNAMSEEQHLVLQMHEILTYLNQKGVVTILLLANHGLIGQMSAPVDMTYLCDSVMLLRFFESGGRLRRAISVVKKRVGPHEDTIREFKISATGLAVGEPLEEFRGILTGVPTYEGKQGNLLQDKAS | not soluble |
| MFENNETLIVWSETDVMDLALSFQEKSGCEELWQKICEVQGRDPGDPDATFDDGDDSDVGEMPSSASRLQLPPIEIGRLGELDALLHMHLTTNSAREKMTLAIENDNVVTKLCEVFRMCEDIEHTEGLRTFYSIVKNLFMLNRNTVIEMLLDDNNIKDVIGMFEFDPAYKHPRKHRDFVYKKAKFREVLNISCDELRDKIHRLYRAQYIQDACLPSLGLFEENLLSTLSSHVFFCRVDIVTLLQKDKKAMSELFGQLISEETDVIRRRDLALFLKEMISLSTSIPSNGPAATKETFFKVLQNMFNSEILDSLEPCFKSPDHETRAVMVDVLRTMVDANAQMIRDFLLKQSKTKDKNEDVLLNMMIRHLLTDIDVHLTSGSEIVLIMKTLLDPENMTTVKSERSDFLQLFYNRCYESLLKPILENVSGGNIKKDDYMIANRQSVILRLLTFCVEHHSFSMRQRCVSNDLMNKVLVLLKSKHSFLVLSALKLLQRVVTVKDDKYIRYIVKEKVLDPVMECFRKNGNRYNIINSSVLHLFEFVRSEDVRPLIKYVVENHMEVVDSVNYVKTFKEIKIRYDQHRDREETMSVRSEDNSLASPRSFRKDRNEDQWFDEDEDLEVGTMLESIEKDSVAVSPKKEEAGQRKTGMEPMFPSLLKRKNAFDDDEAPVFGGGSAAVINNTEKKIVIKVNSDRSPSRTPSPASSPRASSSPGPSRDDEVTSSQNNKESSPTPTVKSLVDYDESDDSDDDPPSPDAVPSSSTGSPEKEGDSADGKKGDSPEYNDVSSTSNEEKFDSRNGAPVTNENGGVEAAAPTVEISRKRTSDGIDPDAKRIRTEETAPAATATVSQA | not soluble |
| MNASAPIPLNETQRLLRIQELCVLEDTSDEVFDEIVAMTAEFFQTPIALVSIVDEHRQWFRARVGLSARETPRNVSFCAYTILSDTLFEIPDATLDERFMNNSLVTGHPDIRYYAGAPLITDDGLALGSLCVIDTKPREPMSEHQTQMLKRFASLVMKRIVSLRL | not soluble |
| MSLEASVEGLDGPAATNVVNFLEPLDTRNISEARLDSDIRERTQRALRAFGYYSPQIETSYPDGMFAGDVVIAIDPGPRTHITQLDLGVDGAAGDDPAFRKALASIPLEEGDPLRHDRYDSAKTRLSTLALERGYFDAGFAQQRMEVRPWEASARLFLRMRSGPRYRFGDIRFAGSQIEEARLRRMLPFTKGDPYLAGQLAEYNQRLGQTNWFRGIAVRPRIGDERNVTRGGQWWQEATGRTPPLSSGAGLAAVRRLHGLQSTDVPVDVDLVPADRHKFETGIGYATDVGPRVQFSWEMPWLNDRGHSLSNSLYLSGPEQRFDGEYVMPLANPLRDSYRLSYGLRSLDNEDTQSLESSVELARRWEFDNDWVQELYFRTTYEDFTQADQDEQVLLLYPGISWTRTRTRQPNFPRWGDRQRLALEVSDPAWGSDARFLRARFDSQWIRTLGSDNRFVGRIGGGATATDTFDKIPPSLRFFAGGDQSVRGYSYESLSPENDDGELLGGQHMLTASAEYQRRVTGNWWGATFVDTGNAFNAWWPEELKTGAGVGVRWISPVGPVRFDIAHPFDNEEDAWRLHFAIGPEEGHHHHHH | not soluble |
| MGSDKIHHHHHHMSCAHVLRTWAPCIMRRAEQALRNSSYLAWETAMGKLALAAKVTHVPSLYLSELDGPHKGCRQPAIDGHHEIGRRCRELGVDTIVVFDVHWLVNSEYHINCAPKFEGIYTSNELPHFIRNMPYAYPGNVELGNLIAEVASEMGVKSRAHSETTLELEYGTLVPMRYMNADQHFKAVSVAGWCVWHDLDTSVRFGLAVRKAIEERYEGTVAILASGSLSHHFANNGTAEQFMHKVWNPFLEQMDRKVVELWEAGDWKTFCEMLPLYNEKCWGEGGMHDTAMLLGALGWDRYEGKVEVVTPYFGSSGTGQINAIFPVTPLPV | not soluble |
| MADHNNTPPFDLTKLDHYIKYQPREEAEDFFVHVEVKVLGKGSSPLEISFSTSVYEFVWEDEDCYELVELYEFFTEDAGIDAFEAQFLVNDLILYVNKTTRPLDEDFTGVFKLMAEVTLKPVQLNHAGSQKTESQQP | soluble |
